The results in this text go back to publication PMC10257657 (Nature Communications, 2023).

This series deals with the molecule itself. Put plainly: AUC; analytical ultracentrifugation of VibO (Supplementary Fig. 24b); conditions not shown.

B1: VibO, NADPH/FAD-dependent monooxygenase (oxepinone-forming enzyme) of Boreostereum vibrans (enzyme)
chain: MAAVENFEGYVEPELFERPGTSLPNKLGVMPQLTWPNVLNGTNCEKPAVPNYKPPSKVDVIIIGAGPVGLTTAACLLRQGITVRILDRSPHPLPVGRADGLQPRSMEVFDLLGLGEEVYHVGIRVEHTTVYKDGKQHIFAESHQAPGNEAHYTGLHACTQTEVEHLLIRDLIRHDILVERPCTATSYTFDEEADASVTHPITVNITNEATGAEEVVTARFLVGSDGAHSMIRKSLPIEFPGVKTDLHWGIVDAVINSDFPHRWTFGTVLNSEYGGCLIIPRERNMVRLYVQLRAEPGKAFDHSKWGPEEILVILNKVFAPYTLSYAEPVDWYTILTINERVATSFTYKDRIFLAGDSCHVHSAKGAFGMNTGVMDAHNLAWKLAMLCRGIAKPSLLASYDVERRENALRAVATSARYLRFVGNCTFQAIDGSGEVDKEADELVVPPGEDKDVFYFKKFVGQVGRFLIGLDVDYAENALNKLSPAVSRARAGYRASNPRVALSRSHSGRLYHSFGHLGQFTLLVFASNMGGALNAKLHALDSYLAGPSSFYHAYGGADTFKIVVVVRATPSQADQRVKTFPFLSKAGHTVYDDQLPLSHFGGDAHALYGVSHEEGAIVVVRPDSWIGTSSTISDARSLESYFDGFLFKSTEGSY
One may read the stoichiometry N as a count of units in the complex or per binding partner. Take B1: the “stoichiometry N” value is 2.
